Test results taken from paper PMC2708785 (Biochemistry, 2009).

Tests used:
AUC = target: the molecule itself; assay: AUC
crystal structure = target: the molecule itself; assay: crystal structure

B1: 2-methyl-3-hydroxypyridine-5-carboxylic acid oxygenase (MHPCO) from Mesorhizobium loti MAFF303099, with N-terminal 6xHis tag (enzyme, UniProt Q988D3 1-379, looked up)
chain: MANVNKTPGKTRRAEVAGGGFAGLTAAIALKQNGWDVRLHEKSSELRAFGAGIYLWHNGLRVLEGLGALDDVLQGSHTPPTYETWMHNKSVSKETFNGLPWRIMTRSHLHDALVNRARALGVDISVNSEAVAADPVGRLTLQTGEVLEADLIVGADGVGSKVRDSIGFKQDRWVSKDGLIRLIVPRMKKELGHGEWDNTIDMWNFWPRVQRILYSPCNENELYLGLMAPAADPRGSSVPIDLEVWVEMFPFLEPCLIEAAKLKTARYDKYETTKLDSWTRGKVALVGDAAHAMCPALAQGAGCAMVNAFSLSQDLEEGSSVEDALVAWETRIRPITDRCQALSGDYAANRSLSKGNMFTPAALEAARYDPLRRVYSWPQ
modifications: selenomethionine in place of methionine (SeMet MHPCO)
AUC
  stoichiometry N: 4
Crystal structure
  stoichiometry N: 2
